Consider one molecule from patent US20260055369A1 (H LEE MOFFITT CANCER CENTER AND RESEARCH INSTITUTE, published 2026).

In assay [1] the target is Notch1 on CHO-K1 N1-Gal4 fluorescent reporter cells (UniProt P46531 19-2555, limits assumed). As to the kind of experiment: cell-based or functional assay.
Assay [2] addresses Notch1 on U2OS hNotch1-Gal4 luciferase reporter cells (human, UniProt P46531 19-2555). As to the kind of experiment: cell-based or functional assay.
The target of assay [3] is T1, hNotch2 (EGF6-13, residues 221-530), biotinylated (human, UniProt Q04721 221-530, Biotinylated in vitro by BirA at the C-terminal BAP-tag (tag not in the letters).).
T1 construct: Immobilised on a streptavidin chip for SPR
T1 sequence: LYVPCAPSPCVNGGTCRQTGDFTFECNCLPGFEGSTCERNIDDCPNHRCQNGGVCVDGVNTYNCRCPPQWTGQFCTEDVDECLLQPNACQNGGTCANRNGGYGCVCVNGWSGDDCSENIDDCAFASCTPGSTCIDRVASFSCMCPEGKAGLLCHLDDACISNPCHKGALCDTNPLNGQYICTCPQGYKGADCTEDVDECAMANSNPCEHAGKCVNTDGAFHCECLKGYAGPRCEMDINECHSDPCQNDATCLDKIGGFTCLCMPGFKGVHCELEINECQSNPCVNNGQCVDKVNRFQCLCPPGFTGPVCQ
As to the kind of experiment: SPR, KD of Delta^MAX against KD of WT DLL4. How it is done:
(§1) Surface plasmon resonance (SPR) was used to determine the binding affinity between Delta^MAX and the ligand-binding regions of Notch1-4. As a basis for comparison, a WT DLL4 construct, a DLL4.v2 construct, and a “DLL4.v1” construct containing the five E12 mutations (G28S, F107L, N118I, H194Y, and L206P) were also generated (FIG. 2A, 10). […] The rapid dissociation of WT DLL4 precluded kinetic fitting of the binding data.
(§2) Equilibrium dissociation constants were determined by surface plasmon resonance using a Biacore T200 instrument (GE Healthcare). Approximately 100 resonance units (RU) of biotinylated Notch extracellular fragments (Notch1 (EGF6-13), Notch2 (EGF6-13), Notch3 (EGF5-12), Notch4 (7-12), and mouse Notch1 (EGF6-13)) were immobilized on individual flow cells at 5 μl/min using a streptavidin-coated sensor chip (Series S Sensor chip SA, GE Healthcare). Three-fold serial dilutions of recombinant DLL4 proteins (N-EGF5) starting at 50 μM (WT DLL4), 18 μM (DLL4.v2), and 6 μM (DLL4.v1 and Delta^MAX) were flowed over the chip at 25° C. in SPR buffer (20 mM HEPES pH 7.4, 150 mM NaCl, 1 mM calcium chloride, 0.1% BSA supplemented with 0.005% surfactant P20). Association (“on-rate”) and dissociation (“off-rate”) phases were performed at 10 μl/min for 120 seconds and 300 seconds, respectively. […] Data collection rate was performed at 10 Hz, and curves were reference-subtracted from a flow cell containing 100 RU of a negative control non-related protein (biotinylated mouse RNF43 PA domain).
(Surface plasmon resonance follows binding to a sensor surface in real time, without labels.)

Assay [4] concerns the target T2, hNotch3 (EGF5-12, residues 197-505), biotinylated (human, UniProt Q9UM47 197-505, Biotinylated in vitro by BirA at the C-terminal BAP-tag (tag not in the letters).).
T2 construct: Immobilised on a streptavidin chip for SPR
T2 sequence: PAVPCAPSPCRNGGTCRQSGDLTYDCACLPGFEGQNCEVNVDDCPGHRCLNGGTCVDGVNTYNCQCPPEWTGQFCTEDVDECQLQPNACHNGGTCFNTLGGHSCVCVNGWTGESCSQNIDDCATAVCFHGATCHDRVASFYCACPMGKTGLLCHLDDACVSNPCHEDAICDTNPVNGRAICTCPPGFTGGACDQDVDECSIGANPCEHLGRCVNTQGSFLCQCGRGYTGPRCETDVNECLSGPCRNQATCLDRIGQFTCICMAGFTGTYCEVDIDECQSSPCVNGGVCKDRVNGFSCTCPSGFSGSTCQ
As to the kind of experiment: SPR, KD of Delta^MAX against KD of WT DLL4. How it is done: as §1, §2

In assay [5] the target is T3, hNotch4 (EGF7-12, residues 276-511), biotinylated (human, UniProt Q99466 276-511, Biotinylated in vitro by BirA at the C-terminal BAP-tag (tag not in the letters).).
T3 construct: Immobilised on a streptavidin chip for SPR; also called Notch4 (7-12)
T3 sequence: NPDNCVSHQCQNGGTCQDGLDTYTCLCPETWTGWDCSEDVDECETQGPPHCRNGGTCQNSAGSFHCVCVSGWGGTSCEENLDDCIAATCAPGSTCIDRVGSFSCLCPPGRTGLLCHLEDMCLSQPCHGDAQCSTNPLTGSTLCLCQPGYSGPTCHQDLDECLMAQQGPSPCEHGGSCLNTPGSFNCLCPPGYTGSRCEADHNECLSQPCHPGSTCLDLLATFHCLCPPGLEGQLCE
As to the kind of experiment: SPR, KD of Delta^MAX against KD of WT DLL4. How it is done: as §1, §2

Sequence of Notch1 on CHO-K1 N1-Gal4 fluorescent reporter cells (P46531 19-2555 limits assumed): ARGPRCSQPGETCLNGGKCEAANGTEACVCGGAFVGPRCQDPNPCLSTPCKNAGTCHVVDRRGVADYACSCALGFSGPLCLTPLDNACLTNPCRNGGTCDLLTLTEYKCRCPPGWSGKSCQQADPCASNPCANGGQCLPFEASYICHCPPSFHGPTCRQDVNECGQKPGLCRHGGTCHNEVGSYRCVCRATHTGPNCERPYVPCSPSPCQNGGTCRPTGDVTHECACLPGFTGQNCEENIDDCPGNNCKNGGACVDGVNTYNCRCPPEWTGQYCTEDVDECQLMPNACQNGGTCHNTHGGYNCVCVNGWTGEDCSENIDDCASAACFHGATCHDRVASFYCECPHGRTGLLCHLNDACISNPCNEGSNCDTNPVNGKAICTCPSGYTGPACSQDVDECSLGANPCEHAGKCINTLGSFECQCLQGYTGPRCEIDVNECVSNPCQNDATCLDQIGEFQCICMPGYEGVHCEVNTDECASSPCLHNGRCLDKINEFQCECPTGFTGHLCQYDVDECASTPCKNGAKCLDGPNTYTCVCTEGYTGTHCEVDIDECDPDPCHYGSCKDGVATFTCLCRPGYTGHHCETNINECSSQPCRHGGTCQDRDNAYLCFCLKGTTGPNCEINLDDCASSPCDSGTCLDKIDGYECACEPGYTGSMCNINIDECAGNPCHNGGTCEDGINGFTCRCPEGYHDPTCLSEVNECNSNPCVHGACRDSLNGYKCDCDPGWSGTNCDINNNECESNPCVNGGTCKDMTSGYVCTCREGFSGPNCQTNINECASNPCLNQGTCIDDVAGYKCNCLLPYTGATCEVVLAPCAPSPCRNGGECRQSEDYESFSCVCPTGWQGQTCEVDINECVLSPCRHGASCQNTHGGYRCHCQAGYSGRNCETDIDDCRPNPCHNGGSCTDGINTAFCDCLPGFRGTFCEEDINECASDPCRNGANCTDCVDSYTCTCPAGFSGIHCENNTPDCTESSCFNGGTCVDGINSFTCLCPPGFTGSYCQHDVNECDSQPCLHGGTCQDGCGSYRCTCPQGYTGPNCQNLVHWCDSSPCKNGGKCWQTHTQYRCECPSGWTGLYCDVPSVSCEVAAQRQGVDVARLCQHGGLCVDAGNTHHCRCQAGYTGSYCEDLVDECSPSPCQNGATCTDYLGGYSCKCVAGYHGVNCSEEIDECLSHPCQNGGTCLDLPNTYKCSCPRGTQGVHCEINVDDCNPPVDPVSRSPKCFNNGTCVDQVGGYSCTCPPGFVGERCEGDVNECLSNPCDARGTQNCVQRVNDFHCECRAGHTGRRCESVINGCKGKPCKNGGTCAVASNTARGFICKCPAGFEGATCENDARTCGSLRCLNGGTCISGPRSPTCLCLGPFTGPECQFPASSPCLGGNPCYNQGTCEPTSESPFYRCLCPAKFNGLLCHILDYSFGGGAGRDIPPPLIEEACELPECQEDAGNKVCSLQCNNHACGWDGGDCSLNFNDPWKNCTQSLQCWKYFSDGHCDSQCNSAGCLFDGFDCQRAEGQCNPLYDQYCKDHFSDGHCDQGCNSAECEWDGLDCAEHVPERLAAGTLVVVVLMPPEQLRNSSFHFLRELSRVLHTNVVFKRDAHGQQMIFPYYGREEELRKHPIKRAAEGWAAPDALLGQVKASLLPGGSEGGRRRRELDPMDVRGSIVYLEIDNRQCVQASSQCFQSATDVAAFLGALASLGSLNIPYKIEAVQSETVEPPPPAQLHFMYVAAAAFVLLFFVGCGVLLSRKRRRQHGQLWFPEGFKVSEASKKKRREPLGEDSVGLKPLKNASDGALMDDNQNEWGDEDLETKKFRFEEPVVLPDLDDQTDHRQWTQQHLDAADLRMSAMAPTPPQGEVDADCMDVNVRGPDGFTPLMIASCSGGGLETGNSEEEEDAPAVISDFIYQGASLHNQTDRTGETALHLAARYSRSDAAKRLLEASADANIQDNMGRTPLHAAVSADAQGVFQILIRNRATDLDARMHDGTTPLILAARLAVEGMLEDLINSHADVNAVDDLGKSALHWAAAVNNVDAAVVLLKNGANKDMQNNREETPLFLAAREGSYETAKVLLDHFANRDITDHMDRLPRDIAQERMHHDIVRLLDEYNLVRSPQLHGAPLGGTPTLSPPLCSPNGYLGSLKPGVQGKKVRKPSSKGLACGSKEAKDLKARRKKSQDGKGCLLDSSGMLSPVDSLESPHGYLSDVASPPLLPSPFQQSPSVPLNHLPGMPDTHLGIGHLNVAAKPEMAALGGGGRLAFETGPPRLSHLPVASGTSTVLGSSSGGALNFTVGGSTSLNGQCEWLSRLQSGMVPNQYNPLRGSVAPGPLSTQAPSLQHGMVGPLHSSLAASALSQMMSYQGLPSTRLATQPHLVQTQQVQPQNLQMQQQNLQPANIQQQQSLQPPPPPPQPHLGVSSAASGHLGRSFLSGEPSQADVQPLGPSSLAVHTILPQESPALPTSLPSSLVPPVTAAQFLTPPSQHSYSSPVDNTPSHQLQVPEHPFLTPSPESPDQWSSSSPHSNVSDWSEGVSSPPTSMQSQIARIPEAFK
Sequence of Notch1 on U2OS hNotch1-Gal4 luciferase reporter cells (P46531 19-2555): as the sequence (P46531 19-2555 limits assumed) above

B1: Delta^MAX (N-EGF5), non-biotinylated (ligand)
chain: SSVFQLQLQEFINERGVLASGRPCEPGCRTFFRVCLKHFQAVVSPGPCTFGTVSTPVLGTNSFAVRDDSSGGGRNPLQLPLNFTWPGTFSLIIEAWHAPGDDLRPEALPPDALISKFAIQGSLAVGQNWLLDEQTSTLTRLRYSYRVICSDNYYGDNCSRLCKKRNDYFGHYVCQPDGNPSCLPGWTGEYCQQPICLSGCHEQNGYCSKPAECLCRPGWQGRLCNECIPHPGCRHGTCSTPWQCLCDEGWGGLYCDQDLNYCTHHSPCKNGATCRNSGPRSYTCTCRPGYTGVDCELELSECDSNPCRNGGSCKDQEDGYHCLCPPGYYGLHCEHSTLSCADSPCFNGGSCRERNQGANYACECPPNFTGSNCEHHHHHHHH
notes: also called DLL4^MAX; soluble Delta^MAX
B1: in assay [1], the “EC50 of Notch1 activation, fluorescent reporter cells, ligand non-specifically adsorbed to plates” value was found to be 0.009 ng/mm^2; the “IC50 of inhibition of Notch1 activation on WT DLL4-coated plates (comparison with DAPT and BB-94)” value turned out to be 1 nM; the “IC50 of inhibition of Notch1 reporter signalling in co-culture with HEK293T cells expressing WT DLL4” value was determined as 400 nM; the “IC50 of inhibition of Notch1 reporter signalling on WT DLL4-coated plates” value came to 0.6 nM. For the same molecule, the “improvement in Notch activation efficiency against WT DLL4 (adsorbed ligand)” value in assay [1] worked out at 250 fold. In addition, the “increase in Notch1 activation relative to control, non-specific adsorption” value in assay [2] stood at 23 fold. Moreover, the “fold enhancement of affinity compared to WT DLL4” value (“fold enhancement of affinity” for short) in assay [3] was found to be 670 fold. Besides, in assay [4], the “fold enhancement of affinity” value came out at 591 fold. Moreover, in assay [5], the “fold enhancement of affinity” value stood at 532 fold.
